Source: PMC12226364

Target: GST-EPAC1 (purified recombinant)

“RanBP2 zinc finger domain (ZFD), 1171-1809 aa (from UniProt P49792 1171-1809) (domain or fragment)” gave a shift of the AC50 of cAMP for EPAC1 GEF activity by RanBP2 ZFD (cAMP titration); maximal GEF activity also reduced of 10 fold.
